# Data reported in article PMC12355267, “Human Helicase DDX5 is Hijacked by SARS-CoV‑2 Nsp13 Helicase to Enhance RNA Unwinding” (ACS Omega, 2025).
# Molecular target: T1, SARS-CoV-2 Nsp13 helicase (SARS-CoV-2, UniProt P0DTD1 5325-5925)
# T1 construct: also called Nsp13 helicase of SARS-CoV-2
# Assay: BLI
# Conditions: both partners purified
binder,measurement,value
"DDX5ΔC (1–484) (domain or fragment, human, UniProt P17844 1-484, looked up, human DDX5 without the flexible C-terminal end, residues 1-484; also called C-terminal truncated form of DDX5; source: E. coli (gene optimized for E. coli expression, pETM-13), purified) MSGYSSDRDRGRDRGFGAPRFGGSRAGPLSGKKFGNPGEKLVKKKWNLDELPKFEKNFYQEHPDLARRTAQEVETYRRSKEITVRGHNCPKPVLNFYEANFPANVMDVIARQNFTEPTAIQAQGWPVALSGLDMVGVAQTGSGKTLSYLLPAIVHINHQPFLERGDGPICLVLAPTRELAQQVQQVAAEYCRACRLKSTCIYGGAPKGPQIRDLERGVEICIATPGRLIDFLECGKTNLRRTTYLVLDEADRMLDMGFEPQIRKIVDQIRPDRQTLMWSATWPKEVRQLAEDFLKDYIHINIGALELSANHNILQIVDVCHDVEKDEKLIRLMEEIMSEKENKTIVFVETKRRCDELTRKMRRDGWPAMGIHGDKSQQERDWVLNEFKHGKAPILIATDVASRGLDVEDVKFVINYDYPNSSEDYIHRIGRTARSTKTGTAYTFFTPNNIKQVSDLISVLREANQAINPKLLQLVEDRGSGRSR",binding result,binds
